Laboratory results as given in US20250289894A1 (MORPHIC THERAPEUTIC, published 2025).
Where two headings read alike, the source gives them in different places. Each block holds one molecule with its values, some of them ahead of it.

Tests used:
Human α7β1 (human) [1] = biological target: Human α7β1 (human) (UniProt Q13683); test: cell-based or functional assay
Human α7β1 (human) [2] = biological target: Human α7β1 (human) (UniProt Q13683); test: cell-based or functional assay; remark: listed apart in the source
[3] = biological target: Human α7β1 (human), Q13683; test: cell-based or functional assay
Human a7 Genu Calf 1-2 = biological target: T1, Human a7 Genu Calf 1-2 (human, UniProt Q13683 679-1078, limits assumed); test: SPR
T1 construct: domain: Genu Calf 1-2
T1 sequence (looked up): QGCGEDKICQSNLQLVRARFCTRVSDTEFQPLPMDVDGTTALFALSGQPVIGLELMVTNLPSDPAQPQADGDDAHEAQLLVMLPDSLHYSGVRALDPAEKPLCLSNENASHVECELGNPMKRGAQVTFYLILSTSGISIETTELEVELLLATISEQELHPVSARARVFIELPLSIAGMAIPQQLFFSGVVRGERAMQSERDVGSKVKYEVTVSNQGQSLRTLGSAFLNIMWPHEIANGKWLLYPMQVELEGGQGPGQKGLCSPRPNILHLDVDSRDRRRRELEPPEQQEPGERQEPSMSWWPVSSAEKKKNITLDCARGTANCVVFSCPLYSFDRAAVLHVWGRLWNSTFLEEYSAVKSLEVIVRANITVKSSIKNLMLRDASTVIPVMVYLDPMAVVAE

Human a7b1 Ecto (X2B) = biological target: T2, Human a7b1 Ecto (X2B) (human, UniProt P05556 21-728); test: SPR
T2 construct: extracellular domain

Molecule: TS2/16 antibody
EC50 (nM), a7b1 activation assay (Human α7β1 (human) [1]): 2.07 nM
EC50 (ug/mL), a7b1 activation assay (Human α7β1 (human) [1]): 0.31 µg/mL
Emax (% TS2/16), a7b1 activation assay (Human α7β1 (human) [1]): 100 % TS2/16
Emax (F.C.), a7b1 activation assay (Human α7β1 (human) [1]): 2.34 F.C.
EC50 (nm), a7b1 activation assay (Human α7β1 (human) [2]): 1.97 nM
EC50 (ug/mL), a7b1 activation assay (Human α7β1 (human) [2]): 0.3 µg/mL
Emax (F.C.), a7b1 activation assay (Human α7β1 (human) [2]): 2.09 F.C.

Molecule: Isotype Control (antibody)
EC50 (nM), ECIS, DMD-1 myoblast cells (control row) (Human α7β1 (human) [1]): 38.1 nM
EC50 (nM), ECIS, DMD-2 myoblast cells (control row) (Human α7β1 (human) [1]): 8.7 nM
EC50 (nM), ECIS, Non-DMD myoblast cells (control row) (Human α7β1 (human) [1]): 8.1 nM
Emax (% of RefAb1), ECIS, DMD-1 myoblast cells (control row) (Human α7β1 (human) [1]): 59 % of RefAb1
Emax (% of RefAb1), ECIS, DMD-2 myoblast cells (control row) (Human α7β1 (human) [1]): 39 % of RefAb1
Emax (% of RefAb1), ECIS, Non-DMD myoblast cells (control row) (Human α7β1 (human) [1]): 35 % of RefAb1

B1: Ab24/Ab25 (antibody, V domains shown)
VH: EVQLVQSGAEVKKPGSSVKVSCKASGYSFTRYWMHWVRQAPGQGLEWIGKIDPSDSETRLNQEFRDRATLTVDKSTSTAYMELSSLRSEDTAVYYCARGGYFGREWYYDVWGQGTLVTVSS
VL: DIVMTQSPLSLPVTPGEPASISCRSSQSLVHRNGNTYLHWYLQKPGQSPQLLIYEVSNRAAGVPDRFSGSGSGTDFTLKISRVEAEDVGVYFCSQSTHVPWTFGGGTKLEIK
EC50 (nM), a7b1 activation assay [3]: 1.86 nM
EC50 (ug/mL), a7b1 activation assay [3]: 0.28 µg/mL
Emax (% TS2/16), a7b1 activation assay [3]: 97.9 % TS2/16
Emax (F.C.), a7b1 activation assay (9EG7 staining, human iPSC cardiomyocytes) [3]: 2.29 F.C.

B2: Ab26/Ab27 (antibody, V domains shown)
VH: EVQLVQSGAEVKKPGSSVKVSCKASGYSFTRYWMHWVRQAPGQGLEWIGKIDPSDSETRLNQEFRDRATLTVDKSTSTAYMELSSLRSEDTAVYYCARGGYFGEEWYHDVWGQGTLVTVSS
VL: DIVMTQSPLSLPVTPGEPASISCRSSQSLVHRNGNTYLHWYLQKPGQSPQLLIYEVSNRFTGVPDRFSGSGSGTDFTLKISRVEAEDVGVYFCAQSTQLPYTFGGGTKLEIK
EC50 (nm), a7b1 activation assay [3]: 2.88 nM
EC50 (ug/mL), a7b1 activation assay [3]: 0.43 µg/mL
Emax (% TS2/16), a7b1 activation assay [3]: 86.3 % TS2/16
Emax (F.C.), a7b1 activation assay [3]: 1.8 F.C.

B3: Ab30 (antibody, human IgG1, V domains shown)
VH: EVQLVQSGAEVKKPGSSVKVSCKASGYSFTRYWMHWVRQAPGQGLEWIGKIDPSDSETRLNQEFRDRATLTVDKSTSTAYMELSSLRSEDTAVYYCARGGYFGEGWYHDVWGQGTLVTVSS
VL: DIVMTQSPLSLPVTPGEPASISCRSSQSLVHRNGNTYLHWYLQKPGQSPQLLIYEVSKRASGVPDRFSGSGSGTDFTLKISRVEAEDVGVYFCAQSIQVPWTFGGGTKLEIK
Kd (Human a7 Genu Calf 1-2): 0.57 nM
Kd (Human a7b1 Ecto (X2B)): 3.99 nM

B4: Ab32 (antibody, human IgG1, V domains shown)
VH: EVQLVQSGAEVKKPGSSVKVSCKASGYSFTRYWMHWVRQAPGQGLEWIGKIDPSDSETRLNQEFRDRATLTVDKSTSTAYMELSSLRSEDTAVYYCARGGYFGEQWYHDVWGQGTLVTVSS
VL: DIVMTQSPLSLPVTPGEPASISCRSSQSLVHRNGNTYLHWYLQKPGQSPQLLIYEVSNRASGVPDRFSGSGSGTDFTLKISRVEAEDVGVYFCSQSTHVPWTFGGGTKLEIK
Kd (Human a7 Genu Calf 1-2): 1.53 nM

B5: AB-P (antibody, V domains shown)
VH: QVQLVQSGAEVKKPGSSVKVSCKASGYSFTRYWMHWVRQAPGQGLEWIGKIDPSDSETRLNQEFRDRATLTVDKSTSTAYMELSSLRSEDTAVYYCARGGYFGEGWYFDVWGQGTLVTVSS
VL: DVVMTQSPLSLPVTPGEPASISCRSSQSLVHRNGNTYLHWYLQKPGQSPQLLIYKVSNRFSGVPDRFSGSGSGTDFTLKISRVEAEDVGVYFCSQSTHVPWTFGGGTKLEIK
Kd (Human a7 Genu Calf 1-2): 16.4 nM
Kd (Human a7b1 Ecto (X2B)): 63.7 nM

B7: Ab31 (antibody, human IgG1, V domains shown)
VH: EVQLVQSGAEVKKPGSSVKVSCKASGYSFTRYWMHWVRQAPGQGLEWIGKIDPSDSETRLNQEFRDRATLTVDKSTSTAYMELSSLRSEDTAVYYCARGGYFGRQWYFDVWGQGTLVTVSS
VL: DIVMTQSPLSLPVTPGEPASISCRSSQSLVHRNGNTYLHWYLQKPGQSPQLLIYEVSNRASGVPDRFSGSGSGTDFTLKISRVEAEDVGVYFCSQSTHVPWTFGGGTKLEIK
Kd (Human a7 Genu Calf 1-2): 2.53 nM

B8: Ab38 (antibody, human IgG1, V domains shown)
VH: EVQLVQSGAEVKKPGSSVKVSCKASGYSFTRYWMHWVRQAPGQGLEWIGKIDPSDSETRLNQEFRDRATLTVDKSTSTAYMELSSLRSEDTAVYYCARGGYFGEEWYNDVWGQGTLVTVSS
VL: DIVMTQSPLSLPVTPGEPASISCRSSQSLVHRNGNTYLHWYLQKPGQSPQLLIYKVSNRASGVPDRFSGSGSGTDFTLKISRVEAEDVGVYFCSQSTHVPWTFGGGTKLEIK
Kd (Human a7 Genu Calf 1-2): 4.44 nM

B10: Ab42 (antibody, human IgG1, V domains shown)
VH: EVQLVQSGAEVKKPGSSVKVSCKASGYSFTRYWMHWVRQAPGQGLEWIGKIDPSDSETRLNQEFRDRATLTVDKSTSTAYMELSSLRSEDTAVYYCARGGYFGRQWYFDVWGQGTLVTVSS
VL: DIVMTQSPLSLPVTPGEPASISCRSSQSLVHRNGNTYLHWYLQKPGQSPQLLIYEGSKRFSGVPDRFSGSGSGTDFTLKISRVEAEDVGVYFCAQSTQLPYTFGGGTKLEIK
Kd (Human a7 Genu Calf 1-2): 5.7 nM

B12: Ab33 (antibody, human IgG1, V domains shown)
VH: EVQLVQSGAEVKKPGSSVKVSCKASGYSFTRYWMHWVRQAPGQGLEWIGKIDPSDSETRLNQEFRDRATLTVDKSTSTAYMELSSLRSEDTAVYYCARGGYFGVGWYNDVWGQGTLVTVSS
VL: DIVMTQSPLSLPVTPGEPASISCRSSQSLVHRNGNTYLHWYLQKPGQSPQLLIYEVSNRVPGVPDRFSGSGSGTDFTLKISRVEAEDVGVYFCSQSTHVPWTFGGGTKLEIK
Kd (Human a7 Genu Calf 1-2): 2.88 nM

Results, then the molecule that gave them:

Kd (Human a7 Genu Calf 1-2): 1.57 nM
B6: Ab39 (antibody, human IgG1, V domains shown)
VH: EVQLVQSGAEVKKPGSSVKVSCKASGYSFTRYWMHWVRQAPGQGLEWIGKIDPSDSETRLNQEFRDRATLTVDKSTSTAYMELSSLRSEDTAVYYCARGGYFGEEWYHDVWGQGTLVTVSS
VL: DIVMTQSPLSLPVTPGEPASISCRSSQSLVHRNGNTYLHWYLQKPGQSPQLLIYKVSNRASGVPDRFSGSGSGTDFTLKISRVEAEDVGVYFCSQSTHVPWTFGGGTKLEIK

Kd (Human a7 Genu Calf 1-2): 1.43 nM
B9: Ab37 (antibody, human IgG1, V domains shown)
VH: EVQLVQSGAEVKKPGSSVKVSCKASGYSFTRYWMHWVRQAPGQGLEWIGKIDPSDSETRLNQEFRDRATLTVDKSTSTAYMELSSLRSEDTAVYYCARGGYFGEKWYHDVWGQGTLVTVSS
VL: DIVMTQSPLSLPVTPGEPASISCRSSQSLVHRNGNTYLHWYLQKPGQSPQLLIYGVSNRFAGVPDRFSGSGSGTDFTLKISRVEAEDVGVYFCAQSTQLPYTFGGGTKLEIK

Kd (Human a7 Genu Calf 1-2): 1.35 nM
B11: Ab34 (antibody, human IgG1, V domains shown)
VH: EVQLVQSGAEVKKPGSSVKVSCKASGYSFTRYWMHWVRQAPGQGLEWIGKIDPSDSETRLNQEFRDRATLTVDKSTSTAYMELSSLRSEDTAVYYCARGGYFGETWYHDVWGQGTLVTVSS
VL: DIVMTQSPLSLPVTPGEPASISCRSSQSLVHRNGNTYLHWYLQKPGQSPQLLIYEVSHRASGVPDRFSGSGSGTDFTLKISRVEAEDVGVYFCSQSTHVPWTFGGGTKLEIK

Kd (Human a7 Genu Calf 1-2): 0.94 nM
B13: Ab40 (antibody, human IgG1, V domains shown)
VH: EVQLVQSGAEVKKPGSSVKVSCKASGYSFTRYWMHWVRQAPGQGLEWIGKIDPSDSETRLNQEFRDRATLTVDKSTSTAYMELSSLRSEDTAVYYCARGGYFGEEWYHDVWGQGTLVTVSS
VL: DIVMTQSPLSLPVTPGEPASISCRSSQSLVHRNGNTYLHWYLQKPGQSPQLLIYEGSKRFSGVPDRFSGSGSGTDFTLKISRVEAEDVGVYFCSQSTHVPWTFGGGTKLEIK

Kd (Human a7 Genu Calf 1-2): 1.33 nM
B14: Ab36 (antibody, human IgG1, V domains shown)
VH: EVQLVQSGAEVKKPGSSVKVSCKASGYSFTRYWMHWVRQAPGQGLEWIGKIDPSDSETRLNQEFRDRATLTVDKSTSTAYMELSSLRSEDTAVYYCARGGYFGEKWYHDVWGQGTLVTVSS
VL: DIVMTQSPLSLPVTPGEPASISCRSSQSLVHRNGNTYLHWYLQKPGQSPQLLIYEVSHRFPGVPDRFSGSGSGTDFTLKISRVEAEDVGVYFCAQSTQLPYTFGGGTKLEIK

Kd (Human a7 Genu Calf 1-2): 0.54 nM
Kd (Human a7b1 Ecto (X2B)): 4.47 nM
B15: Ab35 (antibody, human IgG1, V domains shown)
VH: EVQLVQSGAEVKKPGSSVKVSCKASGYSFTRYWMHWVRQAPGQGLEWIGKIDPSDSETRLNQEFRDRATLTVDKSTSTAYMELSSLRSEDTAVYYCARGGYFGENWYHDVWGQGTLVTVSS
VL: DIVMTQSPLSLPVTPGEPASISCRSSQSLVHRNGNTYLHWYLQKPGQSPQLLIYEVSNRYSGVPDRFSGSGSGTDFTLKISRVEAEDVGVYFCAQSIQVPWTFGGGTKLEIK

Kd (Human a7 Genu Calf 1-2): 0.1 nM
Kd (Human a7b1 Ecto (X2B)): 2.4 nM
B16: Ab24 (antibody, human IgG1, kappa, L234A L235A)
heavy: EVQLVQSGAEVKKPGSSVKVSCKASGYSFTRYWMHWVRQAPGQGLEWIGKIDPSDSETRLNQEFRDRATLTVDKSTSTAYMELSSLRSEDTAVYYCARGGYFGREWYYDVWGQGTLVTVSSASTKGPSVFPLAPSSKSTSGGTAALGCLVKDYFPEPVTVSWNSGALTSGVHTFPAVLQSSGLYSLSSVVTVPSSSLGTQTYICNVNHKPSNTKVDKKVEPKSCDKTHTCPPCPAPEAAGGPSVFLFPPKPKDTLMISRTPEVTCVVVDVSHEDPEVKFNWYVDGVEVHNAKTKPREEQYNSTYRVVSVLTVLHQDWLNGKEYKCKVSNKALAAPIEKTISKAKGQPREPQVYTLPPSRDELTKNQVSLTCLVKGFYPSDIAVEWESNGQPENNYKTTPPVLDSDGSFFLYSKLTVDKSRWQQGNVFSCSVLHEALHSHYTQKSLSLSPG
light: DIVMTQSPLSLPVTPGEPASISCRSSQSLVHRNGNTYLHWYLQKPGQSPQLLIYEVSNRAAGVPDRFSGSGSGTDFTLKISRVEAEDVGVYFCSQSTHVPWTFGGGTKLEIKRTVAAPSVFIFPPSDEQLKSGTASVVCLLNNFYPREAKVQWKVDNALQSGNSQESVTEQDSKDSTYSLSSTLTLSKADYEKHKVYACEVTHQGLSSPVTKSFNRGEC
